Measurements taken from patent US20170218059A1.

Target: histones
Assay: ELISA

- Kd: 6.6 nM
B1: murine IMMU-H4 antibody (antibody, V domains shown)
VH: QVQLQQSGAELVRPGASVKLSCTASGFNIKDDYLHWVKQRPEQGLEWIGWIDPENGDTEYASKFQGKATITADTSSNTAYLQLSSLTSEDTAVYYCSSPLVHLRTFAYWGQGTLVTVS
VL: DIQLTQSPASLAVSLGQRATISCRASESVDSYDNSLHWFQQKPGQPPKLLIYLASNLESGVPARFSGSGSRTDFTLTIDPVEADDAATYYCQQNNEDPWTFGGGTKLEIKR
